# Data: article PMC5264652 (EBioMedicine, 2016)
# Where “and” joins values, the source holds several entries; their conditions need not be identical. Equal entries are not always repeated. Where two headings read alike, the source gives them in different places.
# B1: tefibazumab (antibody, V domains shown)
# VH: QVQLKESGPGLVKPSQTLSITCTISGFSLSRYSVHWVRQPPGKGLEWLGMIWGGGNTDYNSALKSRLSISKDNSKNQVFLKMNSLTAADTAVYYCARKGEFYYGYDGFVYWGQGTLVTVSS
# VL: DIVMTQSPDSLAVSLGERVTMNCKSSQSVLYSSNQKNYLAWYQQKPGQSPKLLIYWASTRESGVPDRFSGSGSGTDFTLTISSVQAEDLAVYYCHQYLSSYTFGGGTKLEIK
# B2: ClfAPWY (domain or fragment)
# chain: VAADAPAAGTDITNQLTNVTVGIDSGTTVYPHQAGYVKLNYGFSVPNSAVKGDTFKITVPKELNLNGVTSTAKVPPIMAGDQVLANGVIDSDGNVIYTFTDYVNTKDDVKATLTMPAYIDPENVKKTGNVTLATGIGSTTANKTVLVDYEKYGKFYNLSIKGTIDQIDKTNNTYRQTIYVNPSGDNVIAPVLTGNLKPNTDSNALIDQQNTSIKVYKVDNAADLSESYFVNPENFEDVTNSVNITFANPNQYKVEFNTPDDQITTPYIVVVNGHIDPNSKGDLALRSTLYGANSNIIARSMSWDNEVAFNNGSGSGDGIDKPVVPEQPDEPGEIEPIPE
# B3: ClfA N3 (ClfA_(370–559)) (domain or fragment)
# chain: EKYGKFYNLSIKGTIDQIDKTNNTYRQTIYVNPSGDNVIAPVLTGNLKPNTDSNALIDQQNTSIKVYKVDNAADLSESYFVNPENFEDVTNSVNITFPNPNQYKVEFNTPDDQITTPYIVVVNGHIDPNSKGDLALRSTLYGYNSNIIWRSMSWDNEVAFNNGSGSGDGIDKPVVPEQPDEPGEIEPIPE
# B4: Human fibrinogen (complex)
# chain 1: ADSGEGDFLAEGGGVRGPRVVERHQSACKDSDWPFCSDEDWNYKCPSGCRMKGLIDEVNQDFTNRINKLKNSLFEYQKNNKDSHSLTTNIMEILRGDFSSANNRDNTYNRVSEDLRSRIEVLKRKVIEKVQHIQLLQKNVRAQLVDMKRLEVDIDIKIRSCRGSCSRALAREVDLKDYEDQQKQLEQVIAKDLLPSRDRQHLPLIKMKPVPDLVPGNFKSQLQKVPPEWKALTDMPQMRMELERPGGNEITRGGSTSYGTGSETESPRNPSSAGSWNSGSSGPGSTGNRNPGSSGTGGTATWKPGSSGPGSTGSWNSGSSGTGSTGNQNPGSPRPGSTGTWNPGSSERGSAGHWTSESSVSGSTGQWHSESGSFRPDSPGSGNARPNNPDWGTFEEVSGNVSPGTRREYHTEKLVTSKGDKELRTGKEKVTSGSTTTTRRSCSKTVTKTVIGPDGHKEVTKEVVTSEDGSDCPEAMDLGTLSGIGTLDGFRHRHPDEAAFFDTASTGKTFPGFFSPMLGEFVSETESRGSESGIFTNTKESSSHHPGIAEFPSRGKSSSYSKQFTSSTSYNRGDSTFESKSYKMADEAGSEADHEGTHSTKRGHAKSRPVRGIHTSPLGKPSLSP
# chain 2: QGVNDNEEGFFSARGHRPLDKKREEAPSLRPAPPPISGGGYRARPAKAAATQKKVERKAPDAGGCLHADPDLGVLCPTGCQLQEALLQQERPIRNSVDELNNNVEAVSQTSSSSFQYMYLLKDLWQKRQKQVKDNENVVNEYSSELEKHQLYIDETVNSNIPTNLRVLRSILENLRSKIQKLESDVSAQMEYCRTPCTVSCNIPVVSGKECEEIIRKGGETSEMYLIQPDSSVKPYRVYCDMNTENGGWTVIQNRQDGSVDFGRKWDPYKQGFGNVATNTDGKNYCGLPGEYWLGNDKISQLTRMGPTELLIEMEDWKGDKVKAHYGGFTVQNEANKYQISVNKYRGTAGNALMDGASQLMGENRTMTIHNGMFFSTYDRDNDGWLTSDPRKQCSKEDGGGWWYNRCHAANPNGRYYWGGQYTWDMAKHGTDDGVVWMNWKGSWYSMRKMSMKIRPFFPQQ
# chain 3: YVATRDNCCILDERFGSYCPTTCGIADFLSTYQTKVDKDLQSLEDILHQVENKTSEVKQLIKAIQLTYNPDESSKPNMIDAATLKSRKMLEEIMKYEASILTHDSSIRYLQEIYNSNNQKIVNLKEKVAQLEAQCQEPCKDTVQIHDITGKDCQDIANKGAKQSGLYFIKPLKANQQFLVYCEIDGSGNGWTVFQKRLDGSVDFKKNWIQYKEGFGHLSPTGTTEFWLGNEKIHLISTQSAIPYALRVELEDWNGRTSTADYAMFKVGPEADKYRLTYAYFAGGDAGDAFDGFDFGDDPSDKFFTSHNGMQFSTWDNDNDKFEGNCAEQDGSGWWMNKCHAGHLNGVYYQGGTYSKASTPNGYDNGIIWATWKTRWYSMKKTTMKIIPFNRLTIGEGQQHHLGGAKQAGDV
# B5: ClfA_(229–545) (domain or fragment)
# chain: GTDITNQLTNVTVGIDSGTTVYPHQAGYVKLNYGFSVPNSAVKGDTFKITVPKELNLNGVTSTAKVPPIMAGDQVLANGVIDSDGNVIYTFTDYVNTKDDVKATLTMPAYIDPENVKKTGNVTLATGIGSTTANKTVLVDYEKYGKFYNLSIKGTIDQIDKTNNTYRQTIYVNPSGDNVIAPVLTGNLKPNTDSNALIDQQNTSIKVYKVDNAADLSESYFVNPENFEDVTNSVNITFPNPNQYKVEFNTPDDQITTPYIVVVNGHIDPNSKGDLALRSTLYGYNSNIIWRSMSWDNEVAFNNGSGSGDGIDKPVVP
# Assays:
# Assay in all cases: SPR
# [1] = molecular target: GST-tagged Fg γ peptide
# [2] = molecular target: ClfA_(229–545) (S. aureus strain Newman, UniProt Q53653)
# [3] = molecular target: T1, Fibrinogen D-fragment (UniProt P02671;P02675;P02679-2)
# T1 sequence 1: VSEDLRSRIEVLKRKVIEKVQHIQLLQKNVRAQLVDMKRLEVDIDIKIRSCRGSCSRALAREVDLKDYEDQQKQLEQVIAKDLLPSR
# T1 sequence 2: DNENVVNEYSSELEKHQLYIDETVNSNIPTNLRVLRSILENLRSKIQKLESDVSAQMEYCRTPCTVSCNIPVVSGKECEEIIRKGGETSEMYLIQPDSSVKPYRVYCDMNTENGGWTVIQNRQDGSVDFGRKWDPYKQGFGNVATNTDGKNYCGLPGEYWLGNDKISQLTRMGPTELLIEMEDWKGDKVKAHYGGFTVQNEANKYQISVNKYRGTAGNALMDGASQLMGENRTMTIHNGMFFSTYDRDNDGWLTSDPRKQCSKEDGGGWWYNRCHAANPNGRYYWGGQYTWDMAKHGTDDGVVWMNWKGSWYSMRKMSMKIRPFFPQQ
# T1 sequence 3: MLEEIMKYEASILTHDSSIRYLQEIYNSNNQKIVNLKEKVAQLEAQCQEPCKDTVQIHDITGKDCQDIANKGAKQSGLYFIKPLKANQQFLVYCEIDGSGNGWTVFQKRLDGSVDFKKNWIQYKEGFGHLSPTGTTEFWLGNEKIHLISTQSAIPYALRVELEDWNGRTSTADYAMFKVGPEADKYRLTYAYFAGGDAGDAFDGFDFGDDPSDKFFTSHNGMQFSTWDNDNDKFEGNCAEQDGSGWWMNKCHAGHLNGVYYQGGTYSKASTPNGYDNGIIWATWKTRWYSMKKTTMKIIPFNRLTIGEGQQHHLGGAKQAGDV
# [4] = molecular target: B4
# [5] = molecular target: T1, Fibrinogen D-fragment; remark: listed apart in the source
# [6] = molecular target: B4; remark: listed apart in the source
# [7] = molecular target: B5
molecule,measurement,setting,value
ClfA_(229–545) (from UniProt Q53653 229-545) (domain or fragment),fold difference in KD against Fg or Fg D-fragment,[1],50 fold
ClfA N3 (ClfA_(370–559)) (from UniProt Q53653 370-559) (domain or fragment),fold lower affinity against intact Fg or Fg D-fragment,[1],10 fold
B1,IC50,[2],330 nM and 390 nM
same,Kd,[2],0.79 nM and 0.81 nM and 0.7 nM
same,koff,[2],0.00049 s⁻¹
same,kon,[2],594000 M⁻¹ s⁻¹
B2,Kd,[3],17 µM
same,Kd,[4],10 µM
B3,fold of KD against ClfA229-545 on the same protein,[5],~10 fold
same,fold of KD against ClfA229-545 on the same protein,[6],~10 fold
B4,IC50,[7],430 nM and 480 nM
B5,Kd,[6],610 nM and 660 nM
